# Measured values as given in paper PMC2841617, “A Combination of Independent Transcriptional Regulators Shapes Bacterial Virulence Gene Expression during Infection”.
# B1: amyA promoter probe (structured_DNA)
# DNA: CAACCAAACTCTCATTAGAAACCCCCCTTTCTAATGAGAGTTTGGTTG
# B2: arcA promoter probe (structured_DNA)
# DNA: ACAAAAACCAATTAGAAAGACCCCCTCTTTCTAATTGGTTTTTGT
# Assays:
# [1] = test system: CcpA;HPr-Ser46-P (Streptococcus pyogenes (group A Streptococcus; strain of the clone not stated here);Streptococcus pyogenes (group A Streptococcus)); experiment: fluorescence polarization; details: CovR FP: 1 nM fluorescein DNA, 20 mM Tris pH 7.5, 50 mM NaCl, 2 mM DTT, 10 ug/mL poly(dI:dC), 25 C, CcpA FP as in ref 30 (buffer not given), with or without …
# [2] = test system: CcpA (Streptococcus pyogenes (group A Streptococcus; strain of the clone not stated here)); experiment: fluorescence polarization; details: CovR FP: 1 nM fluorescein DNA, 20 mM Tris pH 7.5, 50 mM NaCl, 2 mM DTT, 10 ug/mL poly(dI:dC), 25 C, CcpA FP as in ref 30 (buffer not given), with or without …
# [3] = biological target: CovR-P (phosphorylated) (Streptococcus pyogenes MGAS5005 (serotype M1)) (UniProt O87527); experiment: fluorescence polarization; details: CovR FP: 1 nM fluorescein DNA, 20 mM Tris pH 7.5, 50 mM NaCl, 2 mM DTT, 10 ug/mL poly(dI:dC), 25 C; CcpA FP as in ref 30 (buffer not given), with or without …
# [4] = biological target: CovR (unphosphorylated) (Streptococcus pyogenes MGAS5005 (serotype M1)) (UniProt O87527); experiment: fluorescence polarization; details: CovR FP: 1 nM fluorescein DNA, 20 mM Tris pH 7.5, 50 mM NaCl, 2 mM DTT, 10 ug/mL poly(dI:dC), 25 C; CcpA FP as in ref 30 (buffer not given), with or without …
# CovR (unphosphorylated) = CovR (unphosphorylated) (Streptococcus pyogenes MGAS5005 …, UniProt O87527 1-228); experiment: fluorescence polarization; unphosphorylated; CovR FP: 1 nM fluorescein DNA, 20 mM Tris pH 7.5, 50 mM NaCl, 2 mM DTT, 10 ug/mL poly(dI:dC), 25 C; CcpA FP as in ref 30 (buffer not given), with or without 10; details: protein: recombinant, chain copies: 2, label: fluorescein
molecule,measurement,setting,value
spyCEP cre,Kd,[1],33 nM
same,Kd,[2],257 nM
nga/slo cre,Kd,[1],42 nM
same,Kd,[2],674 nM
hasA promoter probe,Kd,[3],640 nM
same,Kd,[4],2200 nM
speB cre,Kd,[1],5 nM
same,Kd,[2],100 nM
amyA cre,Kd (nM (unit implied)),[1]; 10 uM HPr-Ser46-P,32
same,Kd (nM (unit implied)),[2]; no HPr-Ser46-P,160
arcA cre,Kd,[1]; 10 uM HPr-Ser46-P,18 nM
same,Kd,[2]; no HPr-Ser46-P,219 nM
B1,Kd,"CovR (unphosphorylated); hairpin (21 bp stem, C6 loop)",245 nM
B2,Kd,"CovR (unphosphorylated); hairpin (20 bp stem, C5 loop)",637 nM
